In patent US20230322958A1 (Genentech, published 2023):
Numbering of substitutions follows the chain as printed. Numbers in names are those of the source.

T1: huNotch2-EGF6-10 (human, UniProt Q04721 219-418)
T1 construct: also called human Notch2 EGF6-10
T1 sequence: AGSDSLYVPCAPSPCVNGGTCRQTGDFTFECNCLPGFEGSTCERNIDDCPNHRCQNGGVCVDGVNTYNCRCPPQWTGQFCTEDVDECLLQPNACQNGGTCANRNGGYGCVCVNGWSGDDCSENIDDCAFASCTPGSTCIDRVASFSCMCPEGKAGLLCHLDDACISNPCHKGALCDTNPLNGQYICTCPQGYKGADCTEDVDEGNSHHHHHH

B1: hu1B2.L1H1.DFS (antibody, V domains shown)
VH: EVQLVESGGGLVQPGGSLKLSCAVSGFTFSDFYMEWIRQASGKGLEWIAASRNKANDFSIVYSASVKDRFTISRDTSKSTLYLQMNSLKTEDTAVYYCSRDSGRWGLDAWGQGTLVTVSS
VL: DIQMTQSPSSVSASVGDRVTITCQTSEDIYSGLAWYQQKPGKSPKLLIYGASRLQDGVPSRFSGSGSGTDYTLTISSLQPEDFATYFCQQGFKYPLTFGGGTKVEIK
notes: Human IgG1 backbone; also called hu1B2.v1.DFS
B2: rb.2430 (rabbit/human chimeric anti-Notch2 antibody 2430) (antibody, V domains shown)
VH: QSVEESGGRLVTPGTPLTLTCTVSGFSLSSYDMSWVRQAPGKGLEWIGIIQAGSNTLFYASWAKGRFTISKTSTTVDLKITSPTTEDTATYFCARGGVIFIIGHFNLWGPGTLVTVSS
VL: AQVLTQTASSVSAAVGGTVTINCQASQSVVNNRLAWYQQKPGQPPKLLMYGASTLESGVSSRFKGSGSGTQFTLTISGVQCDDAATYYCQGEFLCSSGDCVAFGGGTKVEIK
B3: rb.2621 (rabbit/human chimeric anti-Notch2 antibody 2621) (antibody, V domains shown)
VH: QSLEESGGGLVQPGASLTLTCTASGFSFSSGYDMCWVRQAPGKGLEWIACIVTVSGNTYYASWAKGRFTISKTSSTTVTLQMTSLTAADTATYFCARDGGFTDTWYFHLWGPGTLVTVSS
VL: AYDMTQTPASVEVAVGGTVTIKCQASESIGSYLAWYQQKPGQPPKLLIYRASTLASGVPSRFKGSGSGTEFTLTISGVQCDDAATYYCQQTYSGAGVDNLFGGGTKVEIK
B4: rb.2338 (rabbit/human chimeric anti-Notch2 antibody 2338) (antibody, V domains shown)
VH: QSLEESGGDLVKPGASLTLTCTASGFSFSSGYDMCWVRQAPGKGLEWIACIYAGSEGFTYYASWAKGRFTISKSSSTTVTLQMTSLTVADTATYFCARWTDSDGSNLWGPGTLVTVSS
VL: DVVMTQTPASVEAAVGGTVTIKCQASQSISSYLAWYQQKPGQPPKLLIYRASKLASGVPSRFSGRGSGTQFTLTISDLECADAATYYCQSNSYGNNWVGGFGGGTKVEIK
B5: rat.1B2 (rat/human chimeric anti-Notch2 antibody 1B2) (antibody, V domains shown)
VH: EVKLVDYGGGLVQPGASLRLSCEVSGFTFSDFYMEWIRQAPGKGLEWIAASRNKANNFSIVYSASVKDRFTISRDTYKSILYLQMSTLKPEDTAVYYCSRDSGRWGLDAWGQGTSVIVSS
VL: DIQMTQSPASLSASLGETVTIQCQTSEDIYSGLAWYHQKPGKSPQLLIYGASRLQDGVPSRFTGSGSGTQYSLKISSMQTEDEGVYFCQQGFKYPLTFGSGTKLEIK
notes: also called 1B2 Chimeric; chimeric 1B2
B6: 1B2.v104.huFab.LC_K149C.dPEG19_dimer (other)
heavy: EVQLVESGGGLVQPGGSLKLSCAVSGFTFSDFYMEWVRQASGKGLEWVAAQRNKANDFSIVYSASVKDRFTISRDDSKSTLYLQMNSLKTEDTAVYYCSRDGGKLALDAWGQGTLVTVSSASTKGPSVFPLAPSSKSTSGGTAALGCLVKDYFPEPVTVSWNSGALTSGVHTFPAVLQSSGLYSLSSVVTVPSSSLGTQTYICNVNHKPSNTKVDKKVEPKSCD
light: DIQMTQSPSSVSASVGDRVTITCQTSEDIYSGLAWYQQKPGKSPKLLIYGASRLQDGVPSRFSGSGSGTDYTLTISSLQPEDFATYYCQQGFKYPLTFGGGTKVEIKRTVAAPSVFIFPPSDEQLKSGTASVVCLLNNFYPREAKVQWCVDNALQSGNSQESVTEQDSKDSTYSLSSTLTLSKADYEKHKVYACEVTHQGLSSPVTKSFNRGEC
modifications: engineered Cys (K149C) joined through maleimide to Bis-Mal-PEG19
B7: 1B2.v104.huFab.LC_K149C.PEG_4-arm-Mal-10kD (other)
heavy: B6 heavy
light: B6 light
modifications: engineered Cys (K149C) joined through maleimide to a 4-arm maleimide PEG linker (10 kD)
B8: 1B2.v104.huFab.LC_K149C.PEG_6-arm-Mal-6kD (other)
heavy: B6 heavy
light: B6 light
modifications: engineered Cys (K149C) joined through maleimide to 6ARM(DP)-MAL-6000
B9: 1B2.v104.huFab.LC_K149C.dPEG_trimer (other)
heavy: B6 heavy
light: B6 light
modifications: engineered Cys (K149C) joined through maleimide to Tri(Mal-PEG2-amide)-amine
notes: also called 1B2.v104 Fab trimer; aN2.1B2.Fab-trimer
B10: 1B2.v104.huFab.LC_K149C.dPEG_4-arm-Mal-3kD (other)
heavy: B6 heavy
light: B6 light
modifications: engineered Cys (K149C) joined through maleimide to a 4-arm maleimide dPEG linker (3 kD)
B11: 1B2.v104.Fab-huIgG1.N297G (antibody, V domains shown)
VH: B1 VH with I37V, I48V, S51Q, T76D, S102G, R104K, W105L, G106A
VL: B1 VL with F87Y
notes: Tetravalent Fab-IgG format, human IgG1 N297G; also called Tetravalent Fab-IgG; 1B2.v104 Fab-IgG
B12: 1B2.v104.huIgG1.N297G (antibody, V domains shown)
VH: B1 VH with I37V, I48V, S51Q, T76D, S102G, R104K, W105L, G106A
VL: B1 VL with F87Y
notes: Human IgG1 with N297G; also called Bivalent IgG antibody; 1B2.v104 IgG
B13: 1B2.v104.huFab.LC_K149C.MMTS_capped (Fab, V domains shown)
VH: B1 VH with I37V, I48V, S51Q, T76D, S102G, R104K, W105L, G106A
VL: DIQMTQSPSSVSASVGDRVTITCQTSEDIYSGLAWYQQKPGKSPKLLIYGASRLQDGVPSRFSGSGSGTDYTLTISSLQPEDFATYYCQQGFKYPLTFGGGTKVEIKR
modifications: engineered Cys (K149C) capped with MMTS
notes: Monovalent Fab used in the KinExA experiments; also called Monovalent Fab

What follows are binders tested against T2, human Notch2 on U-87 MG cells (human, UniProt Q04721 26-2471) (assay: cell-based or functional assay).
T2 sequence (Q04721 26-2471): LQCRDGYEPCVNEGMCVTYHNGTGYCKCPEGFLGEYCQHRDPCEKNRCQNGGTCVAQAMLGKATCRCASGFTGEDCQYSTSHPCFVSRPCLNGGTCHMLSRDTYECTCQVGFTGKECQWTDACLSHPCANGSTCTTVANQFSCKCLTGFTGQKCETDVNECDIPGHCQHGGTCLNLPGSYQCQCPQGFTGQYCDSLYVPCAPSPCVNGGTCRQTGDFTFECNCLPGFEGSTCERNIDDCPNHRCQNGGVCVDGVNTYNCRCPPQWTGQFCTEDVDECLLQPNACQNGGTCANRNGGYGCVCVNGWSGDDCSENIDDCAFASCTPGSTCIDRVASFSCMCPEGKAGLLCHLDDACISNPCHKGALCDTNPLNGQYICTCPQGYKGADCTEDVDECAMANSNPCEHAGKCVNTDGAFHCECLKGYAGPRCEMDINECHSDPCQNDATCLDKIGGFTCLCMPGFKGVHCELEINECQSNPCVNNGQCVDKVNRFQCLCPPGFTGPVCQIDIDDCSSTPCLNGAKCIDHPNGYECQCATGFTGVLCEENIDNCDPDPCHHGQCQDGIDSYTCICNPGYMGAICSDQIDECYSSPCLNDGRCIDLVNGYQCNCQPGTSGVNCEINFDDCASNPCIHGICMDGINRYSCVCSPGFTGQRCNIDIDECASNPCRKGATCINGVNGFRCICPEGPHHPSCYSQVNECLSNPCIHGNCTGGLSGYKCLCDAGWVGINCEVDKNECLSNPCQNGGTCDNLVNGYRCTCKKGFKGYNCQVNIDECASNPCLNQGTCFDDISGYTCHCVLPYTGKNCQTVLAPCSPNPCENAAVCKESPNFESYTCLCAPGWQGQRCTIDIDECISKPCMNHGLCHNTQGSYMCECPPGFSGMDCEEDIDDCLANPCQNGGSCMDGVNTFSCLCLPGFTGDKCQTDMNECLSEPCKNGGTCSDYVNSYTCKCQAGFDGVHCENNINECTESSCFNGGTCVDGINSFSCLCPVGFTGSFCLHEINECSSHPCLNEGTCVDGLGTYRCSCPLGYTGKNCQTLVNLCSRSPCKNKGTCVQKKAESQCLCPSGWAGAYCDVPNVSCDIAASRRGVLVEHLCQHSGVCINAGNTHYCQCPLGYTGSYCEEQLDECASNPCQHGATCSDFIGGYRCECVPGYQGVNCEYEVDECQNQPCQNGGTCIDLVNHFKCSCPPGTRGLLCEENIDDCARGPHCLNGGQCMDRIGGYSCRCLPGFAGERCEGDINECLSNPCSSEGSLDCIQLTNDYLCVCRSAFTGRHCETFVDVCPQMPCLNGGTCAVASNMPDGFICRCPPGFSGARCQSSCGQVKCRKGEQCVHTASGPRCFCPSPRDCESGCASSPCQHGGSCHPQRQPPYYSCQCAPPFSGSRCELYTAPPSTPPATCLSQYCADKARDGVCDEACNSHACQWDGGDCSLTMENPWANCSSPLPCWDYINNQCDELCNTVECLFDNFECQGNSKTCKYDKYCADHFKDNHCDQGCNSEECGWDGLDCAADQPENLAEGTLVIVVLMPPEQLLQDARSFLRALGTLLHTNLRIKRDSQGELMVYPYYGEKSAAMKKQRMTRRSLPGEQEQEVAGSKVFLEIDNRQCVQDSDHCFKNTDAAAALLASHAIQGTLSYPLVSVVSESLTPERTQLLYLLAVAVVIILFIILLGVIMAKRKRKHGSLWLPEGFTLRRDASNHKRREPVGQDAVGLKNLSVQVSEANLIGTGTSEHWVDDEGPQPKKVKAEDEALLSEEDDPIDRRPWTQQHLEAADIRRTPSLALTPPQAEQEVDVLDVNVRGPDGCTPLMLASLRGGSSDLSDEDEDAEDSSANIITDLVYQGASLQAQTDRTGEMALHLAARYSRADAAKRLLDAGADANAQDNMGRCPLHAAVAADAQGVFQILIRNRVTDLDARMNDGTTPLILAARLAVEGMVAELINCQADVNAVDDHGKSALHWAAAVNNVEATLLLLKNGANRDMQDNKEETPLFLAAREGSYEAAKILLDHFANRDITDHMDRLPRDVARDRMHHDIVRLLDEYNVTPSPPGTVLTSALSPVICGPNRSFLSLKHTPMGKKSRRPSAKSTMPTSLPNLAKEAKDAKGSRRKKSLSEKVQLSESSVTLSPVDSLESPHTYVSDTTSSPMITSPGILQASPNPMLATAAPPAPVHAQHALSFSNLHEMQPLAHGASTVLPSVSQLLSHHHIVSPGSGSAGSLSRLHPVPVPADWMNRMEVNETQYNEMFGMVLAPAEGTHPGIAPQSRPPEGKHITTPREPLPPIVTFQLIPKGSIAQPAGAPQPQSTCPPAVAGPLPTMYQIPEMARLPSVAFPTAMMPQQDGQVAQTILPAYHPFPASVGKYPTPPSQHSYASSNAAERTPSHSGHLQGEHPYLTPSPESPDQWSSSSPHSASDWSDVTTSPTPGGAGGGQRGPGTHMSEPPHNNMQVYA

Row | Binder | Jagged1 IC50 [nM]
1 | B1 | 7.9
2 | B2 | 1.03
3 | B3 | 0.667
4 | B4 | 3.53
5 | B5 | 12.5

Molecular target: T2, human Notch2 on U-87 MG cells
Experiment: cell-based or functional assay
Remark: another data set of the same source

Row | Binder | DLL Inhibition (IC50) [µM] | Jag1 Inhibition (IC50) [nM]
6 | B6 | > 1 | –
7 | B7 | > 0.5 | 0.27
8 | B8 | > 0.4 | 0.21
9 | B9 | > 0.7 | 0.5
10 | B10 | > 0.5 | 0.35

The binders below were run against T1, huNotch2-EGF6-10 (assay: SPR BIAcore T200, antibody captured on protein A, 37 C).
Procedure: The binding affinities of the antibodies was determined by BIAcore™ T200 machine. Rabbit antibodies were expressed as chimeric antibodies with rabbit variable domains and human constant domains. Rat antibodies were expressed as chimeric antibodies with rat variable domains and human constant regions. Humanized antibodies were expressed in the human IgG1 backbone. For kinetics measurements, antibodies were captured on research grade protein A chip (GE Healthcare) to achieve approximately 300 RU. Ten-fold serial dilutions of huNotch2-EGF6-10 were injected in HBS-P buffer with additional 3 mM CaCl₂ at 37° C. with a flow rate of 100 μL/min. Association rates (ka) and dissociation rates (kd) were calculated using a 1:1 Langmuir binding model (BIAcore™ T200 Evaluation Software version 2.0). The equilibrium dissociation constant (KD) was calculated as the ratio kd/ka.

Row | Binder | Kd [nM] | koff [s⁻¹] | kon [M⁻¹ s⁻¹]
11 | B1 | 5.15 | 0.00116 | 226000
12 | B5 | 5.21 | 0.000943 | 181000

These binders were tested against T2, human Notch2 on U-87 MG cells (assay: KinExA equilibrium whole-cell analysis on Notch2-expressing U-87 cells).
Procedure: After incubation, the cells were centrifuged and the supernatants, containing the free fraction of antibody or Fab construct, were removed without disturbing the cell pellets and transferred onto a KinExA 3200 instrument with autosampler (Sapidyne Instruments Inc). Each supernatant was flowed over a solid phase composed of polystyrene beads (#440176, Sapidyne Instruments Inc) coated with biotinylated goat anti-human Immunoglobulin G (IgG) heavy+light (H+L) (#109-065-003, Jackson ImmunoResearch Laboratories Inc.) or biotinylated Notch2 extracellular domain to capture the free antibody or Fab construct. […] The fluorescent signals were recorded and converted to a voltage signal that is directly proportional to the amount of free antibody or Fab construct in the equilibrated sample. Using the built in Equilibrium Whole Cell analysis method, the KinExA Pro software performed a least squares analysis on the measured data to fit optimal solutions for the KD and the activity of the free antibody or Fab construct to a curve representative of a 1:1 reversible bi-molecular interaction. […] A N-curve analysis was applied for the testing of the two concentrations of antibody or Fab construct to determine the KD on Notch2-expressing U-87 cells.
The binding kinetics were determined using a similar assay format as the one used for the equilibrium analysis, with the exception that measurements were collected “pre-equilibrium” and the binding signals were plotted as a function of time. For the KinExA direct method, anti-Notch2 antibody and Fab formats were incubated with Notch2-expressing U-87 cells at a fixed concentration (Table 12) and aliquots of the cell binding solution were collected at different time points to determine the fraction of free antibody or Fab format. The KinExA Pro software was then used to determine the association rate constant (Kₒₙ).

Row | Binder | Kd [nM]
13 | B11 | 0.195
14 | B12 | 0.0353
15 | B13 | 1.98
16 | B9 | 0.0335
